{"source": "patent US7189506B1", "about": "“DNA binding compound-mediated molecular switch system” (Genelabs Technologies, Inc.)", "molecules": {"B1": {"name": "YK 202LX (dsDNA)", "DNA 1": "CATGGACGCCACTGAGCCGTTTTTGTTCGCACTTGAGGCGAGTCGATGCACC", "DNA 2": "GGTGCATCGACTCGCCTCAAGTGCGAACAAAAACGGCTCAGTGGCGTCCATG"}, "B2": {"name": "YK 202RX-A (dsDNA)", "DNA 1": "CATGGACGCCACTGAGCCGTGTTCGCACTTTTTTTTGAGGCGAGTCGATGCACC", "DNA 2": "GGTGCATCGACTCGCCTCAAAAAAAAGTGCGAACACGGCTCAGTGGCGTCCATG"}, "B3": {"name": "lacO modified (dsDNA)", "DNA 1": "TTTTTTTTGTGAGCGGATAACAAAA", "DNA 2": "TTTTGTTATCCGCTCACAAAAAAAA"}, "B4": {"name": "lacO modified (symmetric) (dsDNA)", "DNA 1": "AAAAAATTGTGAGCGCTCACAATTTTTT", "DNA 2": "AAAAAATTGTGAGCGCTCACAATTTTTT"}, "B5": {"name": "YK 202RX (dsDNA)", "DNA 1": "CATGGACGCCACTGAGCCGTTTTTGTTCGCACTTTTTTTTGAGGCGAGTCGATGCACC", "DNA 2": "GGTGCATCGACTCGCCTCAAAAAAAAGTGCGAACAAAAACGGCTCAGTGGCGTCCATG"}}, "key": {"[1]": {"test_system": "LacR", "settings": "modified LacR DNA response sequence SEQ ID NO:35"}, "[2]": {"test_system": "p50 NF-κB", "test": "Gel mobility shift assay, displacement of p50 NF-kB", "assay_type": "binding", "settings": "JF102 oligonucleotide", "text": "A purified Thioredoxin-p50 NF-kB fusion protein (p50C) (Genelabs Technologies, Inc.) was used to generate five oligonucleotides comprising an NF-kB DNA response element and one or two overlapping binding sites for the AT-rich binder, 21x.\nThe exemplified NF-kB binding sites, […] (SEQ ID NO:29) and […] (SEQ ID NO:30) are present in the Igk and IL-6 promoters, respectively.\nOligonucleotides JF101 (SEQ ID NO:31) and 102 (SEQ ID NO:32), have compound binding sequences overlapping the right side of the NF-kB DNA response element, while in the case of JF103 (SEQ ID NO:33), the overlaps are from both sides (FIG. 7)."}, "[3]": {"test_system": "UL9-VP16 chimeric activator (ULVP) (Herpes simplex virus type 1?)", "test": "cell_activity", "settings": "25 ng pULVP, HeLa"}, "[4]": {"test_system": "UL9-KRAB chimeric repressor (ULKRAB) (Herpes simplex virus type 1?)", "test": "cell_activity", "settings": "0.8 to 1 ug pULKRAB"}, "[5]": {"target": "T1, GST-UL9 (UL9 C-terminal DNA-binding domain) (Herpes simplex virus type 1?, UniProt P10193 P10193:535-851)", "T1 sequence (P10193 535-851, one chain of several)": "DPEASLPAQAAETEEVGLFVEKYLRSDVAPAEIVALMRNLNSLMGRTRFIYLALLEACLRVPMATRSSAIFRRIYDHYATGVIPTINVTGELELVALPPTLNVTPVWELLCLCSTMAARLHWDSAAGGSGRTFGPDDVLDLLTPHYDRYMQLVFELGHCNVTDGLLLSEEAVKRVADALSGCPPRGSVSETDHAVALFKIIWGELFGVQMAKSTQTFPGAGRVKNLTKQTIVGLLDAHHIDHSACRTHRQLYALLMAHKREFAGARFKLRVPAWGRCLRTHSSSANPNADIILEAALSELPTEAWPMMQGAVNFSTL", "test": "EMSA; 10 nM GST-UL9, 20 mM HEPES pH 7.5, 50 mM KCl, RT; displaced by 21x", "settings": "tags: GST fusion, pGEX-UL9 (Genelabs); label: 32P"}, "[6]": {"target": "T1, GST-UL9 (UL9 C-terminal DNA-binding …)", "test": "EMSA; 10 nM GST-UL9; 21x displacement most efficient with overlap at 3' end of site", "settings": "tags: GST fusion, pGEX-UL9 (Genelabs); label: 32P"}, "[7]": {"target": "T2, LacR (lac repressor) (UniProt P03023 P03023:1-360)", "T2 sequence (P03023 whole entry, one chain of several)": "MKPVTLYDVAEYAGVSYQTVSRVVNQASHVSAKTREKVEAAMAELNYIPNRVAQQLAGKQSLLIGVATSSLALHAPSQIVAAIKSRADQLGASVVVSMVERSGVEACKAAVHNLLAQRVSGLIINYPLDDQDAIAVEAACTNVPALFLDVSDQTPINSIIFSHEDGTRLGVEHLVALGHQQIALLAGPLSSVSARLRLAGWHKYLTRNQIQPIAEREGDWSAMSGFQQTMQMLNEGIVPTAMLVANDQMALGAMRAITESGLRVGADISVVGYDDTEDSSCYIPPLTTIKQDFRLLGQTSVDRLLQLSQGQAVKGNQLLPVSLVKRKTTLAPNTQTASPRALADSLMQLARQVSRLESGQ", "test": "EMSA; displaced by 21x more efficiently than by IPTG", "settings": "chain copies: 4; label: 32P"}, "[8]": {"target": "T2, LacR (lac repressor)", "test": "EMSA; displaced by 21x", "settings": "chain copies: 4; label: 32P"}}}
{"molecule": "CC(C)S[C@@H]1O[C@H](CO)[C@H](O)[C@H](O)[C@H]1O", "note": "[IPTG]", "values": [{"measurement": "LacR displacement efficiency, 21x versus IPTG", "setting": "[1]", "result": "21x appears to displace LacR more efficiently than IPTG"}]}
{"molecule": "Cn1cc(NC(=O)c2cc(NC(=O)c3cc(NC=O)cn3C)cn2C)cc1C(=O)NCCC(=N)N", "note": "[distamycin]", "values": [{"measurement": "NF-kB displacement efficiency, 21x versus distamycin", "setting": "[2]", "result": "21x displaces NF-kB more efficiently than distamycin"}]}
{"molecule": "p5Gal/p5GalE GAL4 response element (5 tandem repeats)", "values": [{"measurement": "activity", "setting": "[3]; p5Gal, not activated significantly", "result": 2, "unit": "fold"}, {"measurement": "activity", "setting": "[4]; p5GalE control", "result": "62 % of basal"}]}
{"molecule": "p5UL/p5ULE UL9-21x response element (5 tandem repeats)", "values": [{"measurement": "activity", "setting": "[3]; p5UL", "result": 24, "unit": "fold"}, {"measurement": "activity", "setting": "[4]; p5ULE, HeLa", "result": "5 % of basal"}]}
{"molecule": "B1", "values": [{"measurement": "binding result", "setting": "[5]", "result": "binds"}]}
{"molecule": "B2", "values": [{"measurement": "binding result", "setting": "[6]", "result": "binds"}]}
{"molecule": "B3", "values": [{"measurement": "binding result", "setting": "[7]", "result": "binds"}]}
{"molecule": "B4", "values": [{"measurement": "binding result", "setting": "[8]", "result": "binds"}]}
{"molecule": "B5", "values": [{"measurement": "binding result", "setting": "[6]", "result": "binds"}]}
